Legend:
[1] = molecular target: bacteriophage P22 coat protein (CP), assembled as P22 virus-like particle capsid (bacteriophage P22) (UniProt P26747); experiment: SEC-MALS; procapsid (PC) VLPs from co-expression of CP and AdhD-SP in E. coli, purified; also SDS-PAGE and TEM; cargo number calculated from the molar mass of the particles; 50 mM sodium phosphate, 100 mM sodium chloride, pH 7.0
[2] = molecular target: bacteriophage P22 coat protein (CP), assembled as P22 virus-like particle capsid (bacteriophage P22) (UniProt P26747); experiment: SEC-MALS; expanded (EX) VLPs made from PC by 3.5 mM SDS for 5 min at room temperature, then ultracentrifuged twice; also SDS-PAGE and TEM

Chain of UniProt P26747 (P26747 whole entry): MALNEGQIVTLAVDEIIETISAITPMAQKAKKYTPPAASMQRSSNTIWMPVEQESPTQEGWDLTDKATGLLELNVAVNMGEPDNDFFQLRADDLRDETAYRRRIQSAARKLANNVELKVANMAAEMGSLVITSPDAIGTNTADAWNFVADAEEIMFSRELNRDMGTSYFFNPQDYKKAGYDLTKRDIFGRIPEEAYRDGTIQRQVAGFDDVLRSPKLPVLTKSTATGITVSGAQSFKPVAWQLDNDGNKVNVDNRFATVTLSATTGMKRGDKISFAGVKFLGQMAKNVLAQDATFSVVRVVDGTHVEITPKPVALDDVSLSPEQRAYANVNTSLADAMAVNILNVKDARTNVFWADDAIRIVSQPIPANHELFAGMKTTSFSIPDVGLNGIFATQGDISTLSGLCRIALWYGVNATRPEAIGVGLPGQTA

Substance: alcohol dehydrogenase-D (AdhD) fused to P22 scaffolding protein (AdhD-SP) (enzyme)
- stoichiometry N (AdhD per capsid) [1]: 204
- stoichiometry N (AdhD-SP per VLP) [2]: 174
